Measured values taken from patent US20100222269A1 (Novo Nordisk, published 2010).
Positions of bridges follow the written chain, without caps; N, C: chain ends. Groups on a side chain read outwards from the residue. No end group written: not given here. *: point of attachment. C20 diacid = O=C(O)CCCCCCCCCCCCCCCCCCC(=O)*; C18 diacid = O=C(O)CCCCCCCCCCCCCCCCC(=O)*; AEEA = NCCOCCOCC(=O)O

Target: Amylin 3(a) receptor (human calcitonin receptor (CTa) with RAMP-3) on BHK570 cells (human, UniProt P30988 25-474)
Sequence (P30988 25-474): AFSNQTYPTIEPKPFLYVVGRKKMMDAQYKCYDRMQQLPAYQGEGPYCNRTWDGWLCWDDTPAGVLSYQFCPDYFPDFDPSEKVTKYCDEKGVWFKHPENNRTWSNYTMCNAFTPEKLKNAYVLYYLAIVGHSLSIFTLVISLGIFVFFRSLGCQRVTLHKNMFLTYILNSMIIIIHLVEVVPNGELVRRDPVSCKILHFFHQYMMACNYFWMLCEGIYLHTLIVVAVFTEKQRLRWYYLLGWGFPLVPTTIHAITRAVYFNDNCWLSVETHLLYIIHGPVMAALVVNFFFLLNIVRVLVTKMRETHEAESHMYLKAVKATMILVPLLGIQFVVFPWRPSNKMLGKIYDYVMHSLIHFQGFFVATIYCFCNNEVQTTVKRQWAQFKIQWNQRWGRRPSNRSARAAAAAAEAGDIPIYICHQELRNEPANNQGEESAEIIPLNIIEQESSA
Experiment: cell-based or functional assay

| Potency luciferase assay [pM] | Binder |
| --- | --- |
| 40 | KCNTATCATQRLANFLVRSSNNFGK([AEEA-AEEA-C18 diacid])ILPPTNVGSNTY-NH2 (disulfide 2-7 (inferred)) |
| 100 | KCNTATCATQRLANFLVHSSK([AEEA-AEEA-C20 diacid])NFGPILPPTNVGSNTY-NH2 (disulfide 2-7 (inferred)) |
| 60 | KCNTATCATQRLANFLVHSSNNFGK([AEEA-AEEA-C20 diacid])ILPPTNVGSNTY-NH2 (disulfide 2-7 (inferred)) |
| 70 | {C20 diacid}-EKRCNTATCATQRLANFLVHSSNNFGPILPPTNVGSNTY-NH2 (disulfide 4-9 (inferred)) [N-alpha-(19-carboxynonadecanoyl)-Glu-Lys-[Arg1]-pramlintide (1-37)] |
| 100 | KCNTATCATQRLANFLK([AEEA-AEEA-C20 diacid])HSSNNFGPILPPTNVGSNTY-NH2 (disulfide 2-7 (inferred)) |
| 200 | KCNTATCATQRLANFLVHSSNNFGPILPK([AEEA-AEEA-C20 diacid])TNVGSNTY-NH2 (disulfide 2-7 (inferred)) |
